A short description of this experiment: PAF-AH activity of PAF-AH products expressed in E. coli (hydrolysis of 3H-acetate from [acetyl-3H] PAF). In kind it is biochemical. The conditions noted are these: for PAF-AH activity: amino acid substitution products expressed in E. coli.

Positions count from the first letter of the chain named. Numbers in names are those of the source.

B1: S108A: PAF-AH analog with single amino acid substitution, expressed in E. coli (protein)
chain: MVPPKLHVLFCLCGCLAVVYPFDWQYINPVAHMKSSAWVNKIQVLMAAASFGQTKIPRGNGPYSVGCTDLMFDHTNKGTFLRLYYPSQDNDRLDTLWIPNKEYFWGLAKFLGTHWLMGNILRLLFGSMTTPANWNSPLRPGEKYPLVVFSHGLGAFRTLYSAIGIDLASHGFIVAAVEHRDRSASATYYFKDQSAAEIGDKSWLYLRTLKQEEETHIRNEQVRQRAKECSQALSLILDIDHGKPVKNALDLKFDMEQLKDSIDREKIAVIGHSFGGATVIQTLSEDQRFRCGIALDAWMFPLGDEVYSRIPQPLFFINSEYFQYPANIIKMKKCYSPDKERKMITIRGSVHQNFADFTFATGKIIGHMLKLKGDIDSNVAIDLSNKASLAFLQKHLGLHKDFDQWDCLIEGDDENLIPGTNINTTNQHIMLQNSSGIEKYN
Regarding B1, the PAF-AH activity result is listed as “++++ (wild type PAF-AH activity of about 40-60 U/ml/OD600)”.

B2: C334S: PAF-AH analog, cysteine mutated to serine (protein)
chain: B1 chain with A108S, C334S
With B2, the PAF-AH activity entry is listed as “++++ (wild type PAF-AH activity of about 40-60 U/ml/OD600)”.

B3: D286N: PAF-AH analog with single amino acid substitution (protein)
chain: B1 chain with A108S, D286N
For the molecule B3, the PAF-AH activity result was “++ (about 10-20 U/ml/OD600 activity)”.

B4: S273A: PAF-AH analog, Ser273 changed to alanine (protein)
chain: B1 chain with A108S, S273A
Turning to B4, the PAF-AH activity entry was “- (<1 U/ml/OD600 activity)”.

B5: D286A: PAF-AH analog with single amino acid substitution (protein)
chain: B1 chain with A108S, D286A
As to B5, the PAF-AH activity entry is “- (<1 U/ml/OD600 activity)”.

B6: D304A: PAF-AH analog with single amino acid substitution (protein)
chain: B1 chain with A108S, D304A
With B6, the PAF-AH activity entry is “++++ (wild type PAF-AH activity of about 40-60 U/ml/OD600)”.

B7: D296A: PAF-AH analog, Asp296 changed to alanine (protein)
chain: B1 chain with A108S, D296A
Turning to B7, the PAF-AH activity entry was “- (<1 U/ml/OD600 activity)”.

B8: C67S: PAF-AH analog, cysteine mutated to serine (protein)
chain: B1 chain with C67S, A108S
On to B8, for which the PAF-AH activity entry is reported as “+++ (about 20-40 U/ml/OD600 activity)”.

B9: C407S: PAF-AH analog, cysteine mutated to serine (protein)
chain: B1 chain with A108S, C407S
As to B9, the PAF-AH activity result is given as “+++ (about 20-40 U/ml/OD600 activity)”.

B10: C229S: PAF-AH analog, Cys229 mutated to serine (protein)
chain: B1 chain with A108S, C229S
For B10, the PAF-AH activity entry is given as “+ (1-10 U/ml/OD600 activity)”.

B11: V279F: PAF-AH with phenylalanine for valine at position 279, mutation of PAF-AH deficient patients (protein)
chain: B1 chain with A108S, V279F
With B11, for the setting “E. coli, control construct lacking the mutation fully active”, the “PAF-AH activity of mutant expression construct” value is “no PAF-AH activity”.

B12: H351A: PAF-AH analog, His351 changed to alanine (protein)
chain: B1 chain with A108S, H351A
Regarding B12, the PAF-AH activity entry is reported as “- (<1 U/ml/OD600 activity)”.

B13: D338A: PAF-AH analog with single amino acid substitution (protein)
chain: B1 chain with A108S, D338A
B13: the PAF-AH activity result is “++++ (wild type PAF-AH activity of about 40-60 U/ml/OD600)”.

B14: C291S: PAF-AH analog, Cys291 mutated to serine (protein)
chain: B1 chain with A108S, C291S
With B14, the PAF-AH activity result is given as “+ (1-10 U/ml/OD600 activity)”.

B15: Wild type: wild type human PAF-AH expressed in E. coli, control of mutation series (protein, UniProt Q13093 22-441, looked up)
Platelet-activating factor …: FDWQYINPVAHMKSSAWVNKIQVLMAAASFGQTKIPRGNGPYSVGCTDLMFDHTNKGTFLRLYYPSQDNDRLDTLWIPNKEYFWGLSKFLGTHWLMGNILRLLFGSMTTPANWNSPLRPGEKYPLVVFSHGLGAFRTLYSAIGIDLASHGFIVAAVEHRDRSASATYYFKDQSAAEIGDKSWLYLRTLKQEEETHIRNEQVRQRAKECSQALSLILDIDHGKPVKNALDLKFDMEQLKDSIDREKIAVIGHSFGGATVIQTLSEDQRFRCGIALDAWMFPLGDEVYSRIPQPLFFINSEYFQYPANIIKMKKCYSPDKERKMITIRGSVHQNFADFTFATGKIIGHMLKLKGDIDSNVAIDLSNKASLAFLQKHLGLHKDFDQWDCLIEGDDENLIPGTNINTTNQHIMLQNSSGIEKYN
Take B15: the PAF-AH activity result is given as “++++ (wild type PAF-AH activity of about 40-60 U/ml/OD600)”.

The values above are taken from patent publication US5847088A, “Antibodies specific for platelet-activating factor acetylhydrolase” (ICOS Corporation, priority 1995, dated 1998).
